What was measured:
Assay in all cases: cell-based or functional assay
[1] = biological target: HA of H1N1 influenza virus A/OH/07/2009 (influenza A virus H1N1 A/OH/07/2009)
[2] = biological target: HA of H2N2 influenza virus A/Ann Arbor/6/60, CA (influenza A virus H2N2 A/Ann Arbor/6/60, CA)
[3] = biological target: HA of H3N2 influenza virus A/Beijing/32/92-R-H3 (influenza A virus H3N2 A/Beijing/32/92-R-H3)
[4] = biological target: HA of H3N2 influenza virus A/Beijing/353/89-X109 (influenza A virus H3N2 A/Beijing/353/89-X109)
[5] = biological target: HA of H3N2 influenza virus A/Brisbane/10/07 (influenza A virus H3N2 A/Brisbane/10/07)
[6] = biological target: HA of H3N2 influenza virus A/Hong Kong/68 (influenza A virus H3N2 A/Hong Kong/68)
[7] = biological target: HA of H3N2 influenza virus A/Johannesburg/33/94 R-H3 (influenza A virus H3N2 A/Johannesburg/33/94 R-H3)
[8] = biological target: HA of H3N2 influenza virus A/Nanchang/933/95 (influenza A virus H3N2 A/Nanchang/933/95)
[9] = biological target: HA of H3N2 influenza virus A/Panama/2007/99 (influenza A virus H3N2 A/Panama/2007/99)
[10] = biological target: HA of H3N2 influenza virus A/Sydney/5/97 (influenza A virus H3N2 A/Sydney/5/97)
[11] = biological target: HA of H3N2 influenza virus A/Wisconsin/67/05 (influenza A virus H3N2 A/Wisconsin/67/05)
[12] = biological target: HA of H9N2 influenza virus A/Green-winged teal/209/TX/2009 (influenza A virus H9N2 A/Green-winged teal/209/TX/2009)

CT149 antibody gave an MN titer [1] of 10 µg/mL, an MN titer [2] of over 20 µg/mL and an MN titer [3] of 0.078 µg/mL. It also gave an MN titer [4] of 0.156 µg/mL, an MN assay: lowest antibody concentration at which no virus antigen was detected [5] of 1.25 µg/mL and an MN titer [5] of 0.625 µg/mL. It also gave an MN assay: lowest antibody concentration at which no virus antigen was detected [6] of 2.5 µg/mL, an MN titer [7] of 0.625 µg/mL and an MN titer [8] of 0.625 µg/mL. For the same substance, the MN titer [9] was 0.312 µg/mL, the MN titer [10] was 0.625 µg/mL and the MN assay: lowest antibody concentration at which no virus antigen was detected [11] was 1.25 µg/mL. For the same substance, the MN titer [12] was 0.156 µg/mL.

From patent US20140234336A1
